The text below walks through data of the supplement of paper PMC12042874.

The nature of the data set: amyloid nucleation score (Sup35N fusion, yeast selection) (log enrichment); library NNK3; higher = more nucleation; inactive = no reads after selection. In a few lines: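 In psi-negative yeast, Sup35N fusions carrying peptides of 20 random codons were induced with 100 μM copper sulfate for 24 hours. The cells then grew 7 days at 30°C on medium lacking adenine and uracil, and plasmid inserts from input and output were Illumina-sequenced, excluding sequences with under 100 input reads. Nucleation score is the DiMSum log enrichment of output over input reads, centred on the mode score of non-aggregating sequences.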

± gives the uncertainty stated by the source.

The substance SLNWVGVCNMKSPVNSTQSI had an amyloid nucleation score of 0.329 ± 0.67.

Regarding RHAPNVLKYLAHFNDYRQWH, the amyloid nucleation score entry was “inactive”.

In the case of VIFVGFWQWYSYISELDCNP, the amyloid nucleation score entry is “inactive”.

Take LAPHLSTIMCIEHNS: the amyloid nucleation score result was “inactive”.

Take SYFVWVNV: the amyloid nucleation score result is “inactive”.

On to SKSQSSHHDSYSLWTM, for which the amyloid nucleation score result is “inactive”.

Consider HGFSMTFRLLTFFHGKNYCM, for which the amyloid nucleation score entry is “inactive”.

In the case of RVRSDGANGWGVVMNACWMS, the amyloid nucleation score result was “inactive”.

For MRLVICTAHWQSFYRFYIIL, the amyloid nucleation score entry is “inactive”.

HTRWLGYNSHRGYLFLMSKF yielded an amyloid nucleation score of 0.104 ± 0.9.

Regarding LTLLHRKRMVLRYCNFMLYL, the amyloid nucleation score result is “inactive”.

In the case of FYYRSFCRNGRRH, the amyloid nucleation score entry was “inactive”.

On to LAWCVLSKPRDRYSGVTSTL, for which the amyloid nucleation score result was “inactive”.

As for DYVPIKFYRYYEILNVCRVV, the amyloid nucleation score entry is “inactive”.

VFVKCWNVGSCIATDEYMSE gave an amyloid nucleation score of 2.2 ± 0.078.

Substance GVVVWYSGDWTECMVVNRCD registered an amyloid nucleation score of 0.78 ± 0.12.

As for RLLVGFIWSWLGISYFTRFL, the amyloid nucleation score entry was “inactive”.

As to GCKWWYSVFREWKSPLSGGV, the amyloid nucleation score entry is “inactive”.

On to ASNYDYVYMPTWDKDRFSRY, for which the amyloid nucleation score entry is “inactive”.

Consider NFNCSANWYHLSLLTMNHEV, for which the amyloid nucleation score result was “inactive”.

For IKFHW, the amyloid nucleation score entry was “inactive”.

For the substance KLFISPLEMLISRISWTILH, the amyloid nucleation score was 0.152 ± 0.77.

As for SFVYVSALVSLHGGFADAKF, the amyloid nucleation score was 0.885 ± 0.22.

Consider RFGYKLFRSSVYGRGESYDY, for which the amyloid nucleation score entry is “inactive”.

Consider FRVNKRHQYEEHVLLENLVF, for which the amyloid nucleation score entry was “inactive”.

The substance VYIVSDTRMATASFG registered an amyloid nucleation score of -0.773 ± 1.3.

As to CFGRSGPW, the amyloid nucleation score entry is “inactive”.

Turning to KAFFESMFWV, the amyloid nucleation score entry is “inactive”.

As to WYPLGRPRVLINYETPTSVM, the amyloid nucleation score entry is “inactive”.

Turning to CGGGALLDICLPFICPVNGL, the amyloid nucleation score stood at 0.843 ± 0.19.

In turn, PLWTPDGPLIGVVFVLSNNV yielded an amyloid nucleation score of 1.03 ± 0.15.

In the case of YTFRMYGLMDNLHCAPWF, the amyloid nucleation score result is “inactive”.

Take FFKFFWFSRRPISSFLGLCV: the amyloid nucleation score was found to be 0.708 ± 0.15.

Turning to VWNMSASIKLQRMSAF, the amyloid nucleation score result was “inactive”.

In turn, CLPSVRQKGSWRLR had an amyloid nucleation score of -0.338 ± 0.82.

The substance PCLSMRSNLRGYTWWSVGGY had an amyloid nucleation score of 1.11 ± 0.14.

In the case of TNGKEWWNCVYGERTVNAFA, the amyloid nucleation score result was “inactive”.

Take FSRLFCNSALCIMRFVNTSS: the amyloid nucleation score came to 1.52 ± 0.088.

The substance SWCCR registered an amyloid nucleation score of 1.4 ± 0.1.

Turning to PATLQSPISSK, the amyloid nucleation score entry is “inactive”.

Take SYDNWWCVILMRNQGRCAWG: the amyloid nucleation score result is “inactive”.

In turn, SVRVSIFRGLVRNRWKFDGF displayed an amyloid nucleation score of 0.666 ± 0.16.

With VWSTGRLLRGKSWELISNDT, the amyloid nucleation score entry is “inactive”.

Regarding SIIVTVQLWYVGV, the amyloid nucleation score was 0.422 ± 0.36.

Turning to RVRFLCIMFWDH, the amyloid nucleation score is -0.038 ± 0.66.

For the substance EVMLYRQHHDVRHEHSGYLT, the amyloid nucleation score result is “inactive”.

Take GNWTQ: the amyloid nucleation score entry is “inactive”.

On to AQTYSMCFNITKHPYNSMCG, for which the amyloid nucleation score result was “inactive”.

Regarding YYDHGNFRCMSTKRPVWQVF, the amyloid nucleation score result is “inactive”.

As for LLTKSLNPYMMGCSSSIMQC, the amyloid nucleation score result is “inactive”.

In the case of FAFSNLTKPVFKI, the amyloid nucleation score result was “inactive”.

SLYRGYLFGCGQFDNIVYEL: the amyloid nucleation score result was “inactive”.

On to LADLNTTNIVIGQCCFFYRL, for which the amyloid nucleation score was 2.55 ± 0.076.

For the substance SYRGSRRRSFTSYLCEFEGM, the amyloid nucleation score result was “inactive”.

Take RYCVS: the amyloid nucleation score result was “inactive”.

Consider GIDDDCARHIYWGRFLIGSC, for which the amyloid nucleation score was -0.241 ± 1.1.

On to FLSDSNT, for which the amyloid nucleation score entry was “inactive”.

Take SVGCPVVRTQFILSPGQTSN: the amyloid nucleation score result is “inactive”.

HRYYYFF displayed an amyloid nucleation score of 1.83 ± 0.093.

With YRILYGWSFMIRLILDVQRE, the amyloid nucleation score result is “inactive”.

As to VVRYHSMYKDCYFLKRFVIL, the amyloid nucleation score entry was “inactive”.

As for ESCWHLAEVRVIYGHRSMRP, the amyloid nucleation score was 0.854 ± 0.2.

For NNNISFEEWFPS, the amyloid nucleation score result is “inactive”.

Turning to DSVYGMHGKTTFT, the amyloid nucleation score entry is “inactive”.

Consider ICSII, for which the amyloid nucleation score entry was “inactive”.

Regarding LNQVSLLVGNMRWDCDIKSA, the amyloid nucleation score result was “inactive”.

On to AFGLTVFE, for which the amyloid nucleation score entry is “inactive”.

RLLRVGFMLRFLIMIRRVRF showed an amyloid nucleation score of -0.365 ± 1.

Consider LQQCFYMVNFFMLSSLAVLL, for which the amyloid nucleation score result was “inactive”.

Regarding TCRPFIT, the amyloid nucleation score result was “inactive”.

With FKNCHGVVTRCQW, the amyloid nucleation score entry was “inactive”.

Consider PLNDNRRVPAISVFKECQTS, for which the amyloid nucleation score result was “inactive”.

For the substance RFIVANHLGGVYLQE, the amyloid nucleation score entry was “inactive”.

For CHASEWACYATLFLQT, the amyloid nucleation score result was “inactive”.

SNIGVGKTYHRCTFFFWLIC registered an amyloid nucleation score of 0.989 ± 0.24.

Take AFGYKFGSANEAVRMLLSLV: the amyloid nucleation score result was “inactive”.

For the substance LVTPSSTALFWSNFLWSELP, the amyloid nucleation score entry is “inactive”.

For YSIMFRVLVGT, the amyloid nucleation score result was “inactive”.

Regarding SNSVIW, the amyloid nucleation score result is “inactive”.

Consider SMNRV, for which the amyloid nucleation score entry is “inactive”.

Consider GREAGVIIWVRCLYFYVFER, for which the amyloid nucleation score entry was “inactive”.

As for NIVISYPP, the amyloid nucleation score was found to be 0.749 ± 0.11.

LCNWRAVDCDD gave an amyloid nucleation score of -0.151 ± 0.59.

Substance QNFPSTSHFNIYC came in with an amyloid nucleation score of 1.72 ± 0.094.

On to YVFVCIRPPLVGVHEFNSRS, for which the amyloid nucleation score was -0.089 ± 0.56.

As for FCFRDIYKRSMSRSAYDSG, the amyloid nucleation score entry is “inactive”.

For IAFEVY, the amyloid nucleation score entry is “inactive”.

For GSATVMIWQR, the amyloid nucleation score result was “inactive”.

In turn, SGKFTSGLIVRSASIGLYST displayed an amyloid nucleation score of 0.747 ± 0.26.

Regarding TWELHV, the amyloid nucleation score is -0.428 ± 1.

As for VFYGLYF, the amyloid nucleation score entry was “inactive”.

Regarding CYVWSTALCVNISCGSSTAE, the amyloid nucleation score amounted to 2.7 ± 0.054.

As for TAYFFSVARVMVDLTTALLA, the amyloid nucleation score is 0.161 ± 0.33.

With FIAFWCVNLRTL, the amyloid nucleation score result is “inactive”.

In the case of VKLFKVPLVLSMRL, the amyloid nucleation score result is “inactive”.

As for RSVSDYSSNCRAHCLVDDDT, the amyloid nucleation score entry is “inactive”.

With DIFVFILMLRTTDSWVLLS, the amyloid nucleation score entry is “inactive”.

For VYKWSNVLM, the amyloid nucleation score entry was “inactive”.

In the case of ITPWCFLVSCIRVSYAIVPT, the amyloid nucleation score result was “inactive”.

The substance VFNFFYAEMGLMIKFWIDNL came in with an amyloid nucleation score of 1.08 ± 0.081.

Turning to TRYCVVNW, the amyloid nucleation score was -0.511 ± 0.56.

In the case of TISGLNM, the amyloid nucleation score result is “inactive”.

Take EFVSDLDTDEVGLHCFCWCP: the amyloid nucleation score entry is “inactive”.

As to CSCYENFELVPGFRRCRGMV, the amyloid nucleation score entry was “inactive”.

Regarding EFLQWFDFLQMMAPSLRSAN, the amyloid nucleation score entry is “inactive”.

In turn, LVSTEKWEYLGQCARRELRF showed an amyloid nucleation score of -0.884 ± 2.4.

Regarding ISLVAAKLRTCF, the amyloid nucleation score result was “inactive”.

As to LDFWRESVGAKE, the amyloid nucleation score entry is “inactive”.

Turning to VYWFRYRSIGTAAS, the amyloid nucleation score entry is “inactive”.

With IIFWNICPAYCYL, the amyloid nucleation score was 2.29 ± 0.059.

Turning to YWLSPDKICTYYLVWVRRAP, the amyloid nucleation score result was “inactive”.

For ADLATYLTDLTERDAILSPP, the amyloid nucleation score is 0.424 ± 0.39.

For TAAYSLFIEVSCSQSTN, the amyloid nucleation score entry was “inactive”.

Take VMVSYG: the amyloid nucleation score result was “inactive”.

Consider CVEIVGMESASCVVMNPLVC, for which the amyloid nucleation score result was “inactive”.

In turn, LSRYSRSTIILEHWCDTDWY displayed an amyloid nucleation score of 0.812 ± 0.24.

Regarding MGLGGHIVLSGCSWFMYHIG, the amyloid nucleation score result is “inactive”.

On to GCLQTIADWFNFSNMN, for which the amyloid nucleation score result is “inactive”.

For VRLSKHMLVIDRGLKQLVIY, the amyloid nucleation score entry is “inactive”.

For the substance VWTGWSKRGSSVA, the amyloid nucleation score result is “inactive”.

Take ANSDCLFARFDRLFDVSVED: the amyloid nucleation score is -0.295 ± 0.71.

Regarding LHHMHYSLKGS, the amyloid nucleation score entry is “inactive”.

Turning to HFLFRVRRGTWK, the amyloid nucleation score is 0.396 ± 0.34.

SREVSLLKWMVIILCLW: the amyloid nucleation score entry is “inactive”.

The substance VEEYHNQ returned an amyloid nucleation score of 0.858 ± 0.13.

As to LWRTGRALWAMNWKAYIQFK, the amyloid nucleation score result is “inactive”.

Take GCFVNN: the amyloid nucleation score entry was “inactive”.

For the substance WFDNRGLSFPYVYLLREHGK, the amyloid nucleation score turned out to be 1.13 ± 0.11.

Consider FCGNLEATYRSRFRSNAHSA, for which the amyloid nucleation score is 0.698 ± 0.3.

WALWICC displayed an amyloid nucleation score of 0.83 ± 0.13.

On to WRVPCLIVKYDV, for which the amyloid nucleation score result is “inactive”.

Turning to HLSLRNNNAPDYPSGNSFWE, the amyloid nucleation score result is “inactive”.

For the substance DKMKQKAQKVEDLHMAIGDD, the amyloid nucleation score result was “inactive”.

For the substance ASVRTYVDTNHYNLAEILRL, the amyloid nucleation score result is “inactive”.
